Test results as given in the RNAGym collection of RNA variant scans (doi:10.1073/pnas.2313332121).

B1: TPR t1 (parent)
chain: GACCAAUCUGCCCUCAGAGCUCGAGAACAUCUUCGGAUGCAGAGGAGGCAGGCUUCGGUGGCGCGAUAGCGCCAACGUCCUCAACCUCCAAUGCAUCCCACCACAUGAUGAUGCCUGAAGAGCCUUGGUUUUUUG

Variants of: B1
Assay: polymerase ribozyme fitness, log enrichment relative to wild type (log ratio); higher = more active; in vitro selection for triplet polymerase activity
Summary of the method: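 Both subunits of a heterodimeric triplet polymerase ribozyme were given their own mutant library, built by PCR and transcribed. Each library was annealed with a biotinylated primer, the partner subunit and triplets, incubated frozen at −7 °C, and its extended constructs gel-excised, captured on streptavidin beads and amplified by RT-PCR, all in one round done in triplicate. Fitness is the logarithm of genotype enrichment relative to wild-type enrichment, with replicates averaged by inverse-variance weighting. That logarithm is base 2, and Illumina-sequenced genotypes needed ≥10 input reads and ≥1 read per output.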

Variant | polymerase ribozyme fitness (log ratio)
G51U C73A G117A | -4.4
C53A | 0.0557
A50C C72G G127A | -2.8
G51A C56U A84U C99U A121U | -5.26
C53A A100G G113A G120C | -4.41
G51U C62A | -5.43
G51U C62G | -5.98
C49U C85A | -2.47
C53A C73A | -0.0116
G51U C82U | -1.77
A50C C62A C79U | -1.8
A50U U125G G127C | -3.43
A50C G61U C79G U129C | -2.24
A50U G52C A83C | -2.39
G51A A84C | -2.3
C49U C56U U109G | -5.37
G51A G127A | -3.6
G51C C85G | -4.34
A50U G58A C88U | -2.22
C49U C56U | -0.758
A50U C72U | -1.18
A50U C72G | -1.6
C53A C85G | -1.17
C49U C124U U132A | 0.615

Variant | polymerase ribozyme fitness (log ratio)
G52U C72G C79A G110A C123A | -3.69
A50U C76A C82U | -1.67
A50C C53U G57A U96A G117A U132A | -5.61
G51A C53G G117C G127C | -7.73
G52C A95G G120C U125A | -0.335
G51U U55G C102U | -6.73
A50C C104U G110A A118U | -0.437
A50U U55G C98U G127A | -5.19
G51U C85U | -4.37
G51A C72G U96A | -3.94
A50U U78G A90U | -3.54
G51C C72A U129G | -4.58
G51A A74G A83G G120U C123G G128U | -1.97
G51C U129C | -3.96
G52A U55A A74U G120C C123A C124U G135A | -0.0228
A50G C79A U96C | -2.32
G52A G120U | -0.416
G51U C64A G69C | -3.5
G51A G71A | -4.53
A50C C79G U125A | -1.78
C53A C56A G58C A68U C80A | -6.56
G51A G60A A84G G120U | -2.9
G52U G60A C104U C115G A121C | -4.03
G52U G77U G117U U126C | -5.18

Variant | polymerase ribozyme fitness (log ratio)
C49U C72U C115U C123G | -2.4
A50U A111G U125A | -2.24
G52U U112A U126G | -0.97
A50U G52C G58C C72U C88U | -4.47
C53A C72G U92G | -2.94
G51C C62U U112C | -2.27
G52A C82U | -0.917
C49U C72G U78C | -1.33
C49U C123G G128C | -1.69
G52A G69C C72U A95C | -1.66
A50G C62U G69U C80A | -3.77
A50U U54C C73A A95C | -1.37
G52C G69U C97A | -2.26
G51U A66G | -4.49
G52C U116A G120A | -2.46
G52C G63A C102U C104A | -3.27
C49U G61A U96A | -0.582
G52C U55C U78C C82U | -0.756
C53A A105U | -2.72
A50G G51A C72G C88U G110U | -5.05
G52A U55A G61A C97U C101G U125G | -2.53
G52A U55A G120C C123A C124U G135A | 1.07
A50C C53U C56A | -0.754
C53A A84U U125A | -1.27

Variant | polymerase ribozyme fitness (log ratio)
A50C A66U C72U U81G C85A | -3.05
G52U C72U C104A G127C | -3.82
C49U G69U | 0.911
C49U G69C | -1.79
G52A A90G G93U U112C A119C | -1.55
A50C C97G | -6.04
A50C U129A | -1.83
G52U U109C A118U | -6.47
C49U C73U U78C G110U | -2.87
A50C U130A | -0.352
G52U G63A G120U | -1.08
G52U U125A | -0.984
G52U U125G | -1.12
G52U C73G A84U | -1.78
C49U U81A C89A | -4.05
G52C C85U G117C | -5.83
G52U U81A | -2.79
A50C U106A G110A G127C | -3.34
G52A G60U | -2.42
A50C G93U U112G | -2.03
A50U C85A | -2.11
A50G C53A C72A G93C U109G | -5.37
G51A U131A | -2.2
A50U A74G | -1.27

Variant | polymerase ribozyme fitness (log ratio)
G52U G61A | -1.14
G52U G61U | -0.708
G52U G63U | -0.651
C53A C70U U78C C86G | -1.12
C49U C82U A121U G127A | 0.337
G52U G117A | -1.81
G52A G69C C85A G122A U133A | -4.36
C53A C56A A90G C97A U132C | -3.46
G51C C79A | -4.29
C53A C80U U106A G135U | -3.96
G52C C53G G120U | -2.13
G51A C56U G93U | -3.4
G52A C53A G77A A84U G122A | -2.24
C49U C62U A118U | -0.00141
C49U C53U C97U | -1.14
G51U C94A U133G | -3.88
C49U G63U A95G U112A | -2.42
G52A C56G U96G | -1.35
G52A | -0.286
G52U | -0.82
G52C | -0.632
G52U G93U | -1.93
G52U G69U C79A U87C U129G | -1.06
C49U C53U C89U | -0.369

Variant | polymerase ribozyme fitness (log ratio)
G52A A95C G113C | -3.3
A50G G60A | 0.351
G52A C80U | -1.94
C49U C53A A111C | -0.429
C49U C79G C104A | -5.16
G52C A83G | -1.31
A50U G51C C73U | -3.52
G52A G113A | -1.37
G51U G60C | -2.36
A50C G110A | -2.37
A50C C115U | -1.47
G51C G58A A100C C124U | -4.88
A50G G63A | -0.747
C49U C102G C104A C124A U130A | -4.4
G52A G71A U96G | -1.57
G52C U129C | -1.64
C49U G51A | -1.4
C53A C82G A84G | -0.378
G51U G61C | -3.56
G51U G127A | -4.52
G51U C72A U106A | -3.24
G51U G120C U133G | -1.86
G51C C56A G77U U78A | -3.51
A50C A90C U133G | -1.46

Variant | polymerase ribozyme fitness (log ratio)
G52C G71U U132A | -0.43
A50U G61U | -0.766
A50U G61A | -1.36
A50U U59G U112G | -0.842
G51A C86U | -3.18
G51A C86A | -2.78
G52C C70A G110C | -6.64
G51U C53G C124A U133A U134G | -1.64
G52C G61C C114G G120U | -5.46
C49U G51A C88A | -3.64
G52C C62U C72A C82U A119U | -1.34
C49U G128C | -2.44
G52U C76G C97U | -2.35
G52U G63A C101G C114G | -6.25
C49U C73U G110A | -1.42
A50C U59C C86U | -0.825
G52U G113U | -3.87
G51A C53G | -2.12
A50C C70G | -3.56
A50C C70U | -2.04
C49U G57U C79U C101A G128U | -4.04
C49U G60A C97G | -5.67
A50C C82U G117U | -2.93
